17 molecules from patent US20230235012A1 (ALPINE IMMUNE SCIENCES, published 2023) can be followed below.

The target in experiment [1] is human CD28, full-length, expressed on transfected cells (human) (UniProt P10747). Briefly: flow cytometry, transfected cells. A general note: A flow cytometer gives signals particle by particle.
Experiment [2] deals with T1, human CD28 (human, UniProt P10747 19-220).
T1 construct: whole, on cells
Briefly: flow cytometry, CD28-transfected cells.

In experiment [3] the target is human PD-L1 (human) (UniProt Q9NZQ7). Briefly: flow cytometry, PD-L1-transfected cells.
Sequence of human PD-L1 (human) (Q9NZQ7 19-290): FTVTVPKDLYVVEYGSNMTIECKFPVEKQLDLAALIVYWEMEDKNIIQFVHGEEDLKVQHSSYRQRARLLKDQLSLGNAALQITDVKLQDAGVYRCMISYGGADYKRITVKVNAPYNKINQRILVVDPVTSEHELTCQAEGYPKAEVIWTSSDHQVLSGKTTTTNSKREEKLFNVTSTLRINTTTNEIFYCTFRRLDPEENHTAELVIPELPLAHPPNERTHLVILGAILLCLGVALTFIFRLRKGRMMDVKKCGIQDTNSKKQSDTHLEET
The target in experiment [4] is human PD-L1, full-length, expressed on transfected cells (human) (UniProt Q9NZQ7). Briefly: flow cytometry, transfected cells.
Sequence of human PD-L1, full-length, expressed on transfected cells (human) (Q9NZQ7 19-290): as above
The target of experiment [5] is T2, human ICOS, full length, expressed on cells (human, UniProt Q9Y6W8 21-199).
T2 sequence: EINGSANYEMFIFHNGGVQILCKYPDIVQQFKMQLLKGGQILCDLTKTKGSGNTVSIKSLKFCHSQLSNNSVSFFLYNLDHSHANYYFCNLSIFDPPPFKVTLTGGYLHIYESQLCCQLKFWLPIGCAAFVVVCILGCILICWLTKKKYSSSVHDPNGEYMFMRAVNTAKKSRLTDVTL
Briefly: flow cytometry on CHO cells transduced for surface expression of full-length human ICOS; Fc protein 32 pM to 100 nM, PE anti-human IgG, MFI.

Experiment [6] addresses T1, human CD28. Briefly: flow cytometry, transfected cells; protein from CHO.
In experiment [7] the target is T3, human ICOS (human, UniProt Q9Y6W8 21-199).
T3 construct: whole, on cells
T3 sequence (looked up): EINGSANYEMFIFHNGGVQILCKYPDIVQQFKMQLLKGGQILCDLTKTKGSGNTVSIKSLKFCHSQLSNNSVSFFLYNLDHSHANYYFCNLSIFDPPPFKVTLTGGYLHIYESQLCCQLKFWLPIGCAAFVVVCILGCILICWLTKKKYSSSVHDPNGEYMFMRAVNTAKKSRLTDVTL
The experiment is described as above.

The target in experiment [8] is T4, human CTLA-4 (human, UniProt P16410 36-223).
T4 construct: whole, on cells
T4 sequence (P16410 36-223): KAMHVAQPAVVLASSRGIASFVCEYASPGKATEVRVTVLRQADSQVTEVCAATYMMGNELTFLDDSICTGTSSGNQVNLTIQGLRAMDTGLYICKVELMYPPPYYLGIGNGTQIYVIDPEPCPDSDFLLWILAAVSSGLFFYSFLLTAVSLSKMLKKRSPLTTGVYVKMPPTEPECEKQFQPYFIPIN
Described as above.

Experiment [9] deals with T1, human CD28. Briefly: flow cytometry, transfected cells; protein from 293.
The target of experiment [10] is T3, human ICOS. The description is as above.
In experiment [11] the target is T4, human CTLA-4. The experiment is described as above.
The target in experiment [12] is T1, human CD28. Briefly: flow cytometry, transfected cells; protein from CHO. The source holds these as a separate data set.
The target in experiment [13] is T3, human ICOS. The description is as above. The source holds these as a separate data set.
The target in experiment [14] is T4, human CTLA-4. The description is as above. This is another data set of the same source.
Experiment [15] has as its target human CD28, full length, expressed on cells (human) (UniProt P10747). Briefly: flow cytometry, ECD-Fc on CD28-transfected HEK293 cells.
Experiment [16] has as its target human CD28, full length, expressed on cells (human, UniProt P10747 19-220). Briefly: flow cytometry of human T cells from blood of treated GVHD mice.
Experiment [17] concerns the target T4, human CTLA-4. Briefly: flow cytometry, transfected cells.

Where “and” joins values, the source holds several entries; their conditions need not be identical. Identical values can stand only once.

The molecule “stacked Fc fusion: Domain 1 NKp30 WT / Domain 2 ICOSL WT / Fc” showed an MFI in experiment [1] of 6340 MFI.
As to “ICOSL F27S/N52H/N57Y/V110N ECD-Fc (Fc fusion)”, in experiment [2], the MFI was 8610 MFI and 4160 MFI; the parental ratio of MFI is 1.92 fold vs WT and 0.93 fold vs WT.
On to “stack ICOSL WT IgV / CD80 WT IgV / Fc (Fc fusion)”, for which the MFI in experiment [3] is 3000 MFI.
For “ICOSL Y47H/N52S/V107A/F120S ECD-Fc (Fc fusion)”, in experiment [2], the parental ratio of MFI was 0.31 fold vs WT.
Turning to “stacked Fc fusion: Domain 1 ICOSL WT / Domain 2 NKp30 WT / Fc”, the MFI in experiment [1] was determined as 7920 MFI.
On to “ICOSL N52H/N57Y/Q100R/V110D/V116A/L161M/F172S/S192G/C198R ECD-Fc (Fc fusion)”, for which the parental ratio of MFI in experiment [2] was determined as 0.93 fold vs WT.
For the molecule “stack CD80 WT IgV / ICOSL WT IgV / Fc (Fc fusion)”, the MFI in experiment [3] stood at 1230 MFI.
For “ICOSL T43A/N52H/N57Y/L74Q/D89G/V110D/F172S ECD-Fc (Fc fusion)”, the parental ratio of MFI in [2] amounted to 0.49 fold vs WT.
Take “stacked Fc fusion: Domain 1 CD80 WT / Domain 2 ICOSL WT / Fc”: the MFI in experiment [4] worked out at 2660 MFI.

B1: ICOSL (N52D) (Fc fusion, not shown: a dimerising Fc or GST; small tags and cut ends)
chain: DTQEKEVRAMVGSDVELSCACPEGSRFDLNDVYVYWQTSESKTVVTYHIPQDSSLENVDSRYRNRALMSPAGMLRGDFSLRLFNVTPQDEQKFHCLVLSQSLGFQEVLSVEVTLHVAANFSV
notes: also called ICOSL H79; parental ICOSL only protein
Regarding B1, the “EC50 (read off the curve)” value in experiment [5] was about 0.8 nM.

B2: ICOSL (N52L/N57H/Q100R) (Fc fusion, not shown: a dimerising Fc or GST; small tags and cut ends)
chain: DTQEKEVRAMVGSDVELSCACPEGSRFDLNDVYVYWQTSESKTVVTYHIPQLSSLEHVDSRYRNRALMSPAGMLRGDFSLRLFNVTPQDEQKFHCLVLSRSLGFQEVLSVEVTLHVAANFSV
notes: also called ICOSL H3447; parental ICOSL only protein
In the case of B2, the “EC50 (read off the curve)” value in [5] was about 0.4 nM.

B3: ICOSL (N52H/N57Y/Q100R) (Fc fusion, not shown: a dimerising Fc or GST; small tags and cut ends)
chain: DTQEKEVRAMVGSDVELSCACPEGSRFDLNDVYVYWQTSESKTVVTYHIPQHSSLEYVDSRYRNRALMSPAGMLRGDFSLRLFNVTPQDEQKFHCLVLSRSLGFQEVLSVEVTLHVAANFSV
notes: also called ICOSL H238; parental ICOSL only protein
For B3, in [5], the “EC50 (read off the curve)” value is about 0.5 nM.

B4: ICOSL ECD with N52H/N57Y/Q100R/F172S, (G4S)2-Fc fusion (Fc fusion)
chain: DTQEKEVRAMVGSDVELSCACPEGSRFDLNDVYVYWQTSESKTVVTYHIPQHSSLEYVDSRYRNRALMSPAGMLRGDFSLRLFNVTPQDEQKFHCLVLSRSLGFQEVLSVEVTLHVAANFSVPVVSAPHSPSQDELTFTCTSINGYPRPNVYWINKTDNSLLDQALQNDTVSLNMRGLYDVVSVLRIARTPSVNIGCCIENVLLQQNLTVGSQTGNDIGERDKITENPVSTGEKNAATGGGGSGGGGSEPKSSDKTHTCPPCPAPEAEGAPSVFLFPPKPKDTLMISRTPEVTCVVVDVSHEDPEVKFNWYVDGVEVHNAKTKPREEQYNSTYRVVSVLTVLHQDWLNGKEYKCKVSNKALPAPIEKTISKAKGQPREPQVYTLPPSREEMTKNQVSLTCLVKGFYPSDIAVEWESNGQPENNYKTTPPVLDSDGSFFLYSKLTVDKSRWQQGNVFSCSVMHEALHNHYTQKSLSLSPG
notes: also called ICOSCL ECD with N52H/N57Y/Q100R/F172S
Consider B4, for which the MFI in experiment [6] worked out at 110000 MFI; in experiment [7], 136000 MFI; in experiment [8] it was 323000 MFI; in experiment [9], 12900 MFI; in [10], 16000 MFI; in experiment [11] it was 8180 MFI. Further, the MFI turned out to be 14400 MFI in [12], 12600 MFI in experiment [13] and 8710 MFI in experiment [14]. The “MFI ratio to WT” value in [6] is 63.9 fold; in [7], 1.4 fold; in experiment [8] it was 42.6 fold; in experiment [9], 3.6 fold; in [10], 1.4 fold; in experiment [11], 0.7 fold. Moreover, the “MFI ratio to WT” value was 4.1 fold in [12], 1.1 fold in experiment [13] and 0.7 fold in experiment [14].

B5: variant ICOSL ECD-Fc F120S/Y152H/N201S (Fc fusion)
chain: DTQEKEVRAMVGSDVELSCACPEGSRFDLNDVYVYWQTSESKTVVTYHIPQNSSLENVDSRYRNRALMSPAGMLRGDFSLRLFNVTPQDEQKFHCLVLSQSLGFQEVLSVEVTLHVAANSSVPVVSAPHSPSQDELTFTCTSINGYPRPNVHWINKTDNSLLDQALQNDTVFLNMRGLYDVVSVLRIARTPSVNIGCCIESVLLQQNLTVGSQTGNDIGERDKITENPVSTGEKNAATAAAEPKSSDKTHTCPPCPAPELLGGPSVFLFPPKPKDTLMISRTPEVTCVVVDVSHEDPEVKFNWYVDGVEVHNAKTKPCEEQYGSTYRCVSVLTVLHQDWLNGKEYKCKVSNKALPAPIEKTISKAKGQPREPQVYTLPPSREEMTKNQVSLTCLVKGFYPSDIAVEWESNGQPENNYKTTPPVLDSDGSFFLYSKLTVDKSRWQQGNVFSCSVMHEALHNHYTQKSLSLSPGK
For B5, the CD28 MFI parental ratio (ratio to WT ICOSL) in [15] is 0.89.

B6: variant ICOSL ECD-Fc S54F/V193A (Fc fusion)
chain: DTQEKEVRAMVGSDVELSCACPEGSRFDLNDVYVYWQTSESKTVVTYHIPQNSFLENVDSRYRNRALMSPAGMLRGDFSLRLFNVTPQDEQKFHCLVLSQSLGFQEVLSVEVTLHVAANFSVPVVSAPHSPSQDELTFTCTSINGYPRPNVYWINKTDNSLLDQALQNDTVFLNMRGLYDVVSVLRIARTPSANIGCCIENVLLQQNLTVGSQTGNDIGERDKITENPVSTGEKNAATAAAEPKSSDKTHTCPPCPAPELLGGPSVFLFPPKPKDTLMISRTPEVTCVVVDVSHEDPEVKFNWYVDGVEVHNAKTKPCEEQYGSTYRCVSVLTVLHQDWLNGKEYKCKVSNKALPAPIEKTISKAKGQPREPQVYTLPPSREEMTKNQVSLTCLVKGFYPSDIAVEWESNGQPENNYKTTPPVLDSDGSFFLYSKLTVDKSRWQQGNVFSCSVMHEALHNHYTQKSLSLSPGK
On to B6, for which, in experiment [15], the CD28 MFI amounted to 16 MFI and the CD28 MFI parental ratio (ratio to WT ICOSL) stood at 0.87.

B7: variant ICOSL IgV-Fc (N52H/N57Y/Q100R) (Fc fusion)
chain: DTQEKEVRAMVGSDVELSCACPEGSRFDLNDVYVYWQTSESKTVVTYHIPQHSSLEYVDSRYRNRALMSPAGMLRGDFSLRLFNVTPQDEQKFHCLVLSRSLGFQEVLSVEVTLHVAANFSVEPKSSDKTHTCPPCPAPEAEGAPSVFLFPPKPKDTLMISRTPEVTCVVVDVSHEDPEVKFNWYVDGVEVHNAKTKPREEQYNSTYRVVSVLTVLHQDWLNGKEYKCKVSNKALPAPIEKTISKAKGQPREPQVYTLPPSRDELTKNQVSLTCLVKGFYPSDIAVEWESNGQPENNYKTTPPVLDSDGSFFLYSKLTVDKSRWQQGNVFSCSVMHEALHNHYTQKSLSLSPG
As to B7, the binding result in [16] was “binds”.

B8: Wildtype ICOSL ECD (control of Tables 30C and 30D) (Fc fusion, not shown: a dimerising Fc or GST)
chain: DTQEKEVRAMVGSDVELSCACPEGSRFDLNDVYVYWQTSESKTVVTYHIPQNSSLENVDSRYRNRALMSPAGMLRGDFSLRLFNVTPQDEQKFHCLVLSQSLGFQEVLSVEVTLHVAANFSVPVVSAPHSPSQDELTFTCTSINGYPRPNVYWINKTDNSLLDQALQNDTVFLNMRGLYDVVSVLRIARTPSVNIGCCIENVLLQQNLTVGSQTGNDIGERDKITENPVSTGEKNAAT
Consider B8, for which the MFI in [11] came out at 12100 MFI; in [17], 7580 MFI.

For orientation: EC50 (read off the curve) means the concentration at which the effect is half-maximal. Read a low EC50 (read off the curve) as greater potency.
